Experimental data as given in article PMC9335285 (Proceedings of the National Academy of Sciences of the …, 2022).

Biological target: the molecule itself
Assay: cross-linking

B1: full-length Mycobacterium tuberculosis MmpL3 (natural protein)
chain: MFAWWGRTVYRYRFIVIGVMVALCLGGGVFGLSLGKHVTQSGFYDDGSQSVQASVLGDQVYGRDRSGHIVAIFQAPAGKTVDDPAWSKKVVDELNRFQQDHPDQVLGWAGYLRASQATGMATADKKYTFVSIPLKGDDDDTILNNYKAIAPDLQRLDGGTVKLAGLQPVAEALTGTIATDQRRMEVLALPLVAVVLFFVFGGVIAAGLPVMVGGLCIAGALGIMRFLAIFGPVHYFAQPVVSLIGLGIAIDYGLFIVSRFREEIAEGYDTETAVRRTVITAGRTVTFSAVLIVASAIGLLLFPQGFLKSLTYATIASVMLSAILSITVLPACLGILGKHVDALGVRTLFRVPFLANWKISAAYLNWLADRLQRTKTREEVEAGFWGKLVNRVMKRPVLFAAPIVIIMILLIIPVGKLSLGGISEKYLPPTNSVRQAQEEFDKLFPGYRTNPLTLVIQTSNHQPVTDAQIADIRSKAMAIGGFIEPDNDPANMWQERAYAVGASKDPSVRVLQNGLINPADASKKLTELRAITPPKGITVLVGGTPALELDSIHGLFAKMPLMVVILLTTTIVLMFLAFGSVVLPIKATLMSALTLGSTMGILTWIFVDGHFSKWLNFTPTPLTAPVIGLIIALVFGLSTDYEVFLVSRMVEARERGMSTQEAIRIGTAATGRIITAAALIVAVVAGAFVFSDLVMMKYLAFGLMAALLLDATVVRMFLVPSVMKLLGDDCWWAPRWARRLQTRIGLGEIHLPDERKRPVSNGRPARPPVTAGLVAARAAGDPRPPHDPTHPLAESPRPARSSPASSPELTPALEATAAPAAPSGASTTRMQIGSSTEPPTTRLAAAGRSVQSPASTPPPTPTPPSAPSAGQTRAMPLAANRSTDAAGDPAEPTAALPIIRSDGDDSEAATEQLNARGTSDKTRQRRRGGGALSAQDLLRREGRL
B1: binds.
